Measured values reported in article PMC8008188.

Biological target: bone sialoprotein, full length 90 kDa, of UMR106-01 osteoblastic cultures (rat (endogenous in UMR106-01)) (UniProt P13839)
Test: co-elution on anion-exchange chromatography; EDTA extract of mineralizing UMR106-01 cultures on POROS 20 HQ in 0.05 M sodium acetate pH 5.2, 8 M urea, 0.1% CHAPS; 0 to 0.6 M NaCl gradient, then 2 M NaCl step; fractions read by dot blot and Western blot with anti-BSP and anti-6b antibodies

UniProt P13839, sequence (P13839 17-320): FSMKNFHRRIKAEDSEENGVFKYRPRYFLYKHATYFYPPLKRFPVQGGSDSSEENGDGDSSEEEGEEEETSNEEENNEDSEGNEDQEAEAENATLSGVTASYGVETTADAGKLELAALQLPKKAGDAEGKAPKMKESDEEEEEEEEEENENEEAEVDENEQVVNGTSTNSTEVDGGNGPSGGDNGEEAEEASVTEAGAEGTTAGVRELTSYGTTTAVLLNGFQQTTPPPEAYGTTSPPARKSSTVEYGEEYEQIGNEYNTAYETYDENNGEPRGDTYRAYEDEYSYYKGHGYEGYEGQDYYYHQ

percent of the fragment co-eluting with BSP: > 80%
Substance: 60 kDa Col11a1 N-terminal domain (NTD) fragment with the “6b” exon sequence (domain or fragment)
